Data published in article PMC6085827.

Molecular target: S-tagged long RECK isoform (human) (UniProt O95980)
Experiment: co-IP

Chain of UniProt O95980 (O95980 23-942): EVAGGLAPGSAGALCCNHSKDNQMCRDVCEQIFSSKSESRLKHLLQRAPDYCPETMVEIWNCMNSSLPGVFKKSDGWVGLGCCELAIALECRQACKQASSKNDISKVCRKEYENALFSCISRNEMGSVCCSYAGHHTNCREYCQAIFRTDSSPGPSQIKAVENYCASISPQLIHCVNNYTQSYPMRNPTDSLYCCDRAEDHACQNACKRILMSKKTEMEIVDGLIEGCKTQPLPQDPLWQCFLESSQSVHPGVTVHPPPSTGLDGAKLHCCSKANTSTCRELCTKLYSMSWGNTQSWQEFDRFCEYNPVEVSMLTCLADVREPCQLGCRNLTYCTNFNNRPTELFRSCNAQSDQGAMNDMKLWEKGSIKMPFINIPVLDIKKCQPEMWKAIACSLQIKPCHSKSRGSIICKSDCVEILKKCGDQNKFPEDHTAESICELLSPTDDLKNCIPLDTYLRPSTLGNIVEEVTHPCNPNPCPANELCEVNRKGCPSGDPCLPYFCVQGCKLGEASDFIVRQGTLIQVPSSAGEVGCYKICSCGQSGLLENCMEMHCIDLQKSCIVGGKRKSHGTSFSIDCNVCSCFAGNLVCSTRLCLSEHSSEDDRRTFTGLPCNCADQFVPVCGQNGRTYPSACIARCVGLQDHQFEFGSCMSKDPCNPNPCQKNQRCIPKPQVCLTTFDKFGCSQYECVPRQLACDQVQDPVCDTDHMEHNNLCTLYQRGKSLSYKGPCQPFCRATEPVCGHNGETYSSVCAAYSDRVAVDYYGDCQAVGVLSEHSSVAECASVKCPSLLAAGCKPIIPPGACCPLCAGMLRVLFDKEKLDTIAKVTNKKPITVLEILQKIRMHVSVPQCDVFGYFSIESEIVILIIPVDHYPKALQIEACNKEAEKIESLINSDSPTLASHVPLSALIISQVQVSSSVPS

- percent reduction of MMP9 co-immunoprecipitated with long RECK: 88%
Substance: Flag-tagged short RECK isoform (natural protein)
